Data set [1] relates to HeLa Kyoto. The experiment in a line: solubility in G1/S (NP-40 vs SDS abundance) (log2 ratio); higher = more soluble. Particulars: cell cycle stage: G1/S.
In data set [2] the test system is HeLa Kyoto. The experiment in a line: melting temperature (median over replicates), in situ; higher = more thermally stable.
Data set [3] has as its system HeLa Kyoto. The data set can be described thus: solubility change mitosis vs G1/S (difference of NP-40 vs SDS log2 ratios) (log2 ratio difference); higher = more soluble in mitosis.
Data set [4] deals with HeLa Kyoto. The experiment in a line: thermal stability score vs G1/S (z-score of summed log2 fold changes over temperatures); higher = more thermally stable than in G1/S.
[5] abbreviates: cell cycle stage: early G1 (4.5 h after nocodazole release).

The source of these data is the supplement of paper PMC5998384.
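Throughout, for melting temperature (median over replicates), in situ: HeLa Kyoto cells synchronized by double thymidine or nocodazole block, proteins quantified by TMT10plex mass spectrometry, three independent biological replicates.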
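Throughout, for solubility change mitosis vs G1/S (difference of NP-40 vs SDS log2 ratios): synchronized HeLa Kyoto cells (double thymidine block for G1/S, nocodazole release for mitosis), protein amounts in NP-40 versus SDS lysates quantified by mass spectrometry, three biological replicates.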
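Throughout, for solubility in G1/S (NP-40 vs SDS abundance): HeLa Kyoto cells arrested at G1/S by double thymidine block, proteins quantified by TMT10plex mass spectrometry in mild NP-40 versus SDS extracts, three biological replicates.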
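Throughout, for thermal stability score vs G1/S (z-score of summed log2 fold changes over temperatures): synchronized HeLa Kyoto cells, proteins quantified by TMT10plex mass spectrometry, three biological replicates, mitosis taken 0.5 h after nocodazole release, G1/S directly after double thymidine block.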

For the sequence “MSKRLRSSEVCADCSGPDPSWASVNRGTFLCDECCSVHRSLGRHISQVRHLKHTPWPPTLLQMVETLYNNGANSIWEHSLLDPASIMSGRRKANPQDKVHPNKAEFIRAKYQMLAFVHRLPCRDDDSVTAKDLSKQLHSSVRTGNLETCLRLLSLGAQANFFHPEKGNTPLHVASKAGQILQAELLAVYGADPGTQDSSGKTPVDYARQGGHHELAERLVEIQYELTDRLAFYLCGRKPDHKNGQHFIIPQMADSSLDLSELAKAAKKKLQSLSNHLFEELAMDVYDEVDRRETDAVWLATQNHSALVTETTVVPFLPVNPEYSSTRNQGRQKLARFNAHEFATLVIDILSDAKRRQQGSSLSGSKDNVELILKTINNQHSVESQDNDQPDYDSVASDEDTDLETTASKTNRQKSLDSDLSDGPVTVQEFMEVKNALVASEAKIQQLMKVNNNLSDELRIMQKKLQTLQSENSNLRKQATTNVYQVQTGSEYTDTSNHSSLKRRPSARGSRPMSMYETGSGQKPYLPMGEASRPEESRMRLQPFPAHIGRSALVTSSSSLPSFPSTLSWSRDESARRASRLEKQNSTPESDYDNTPNDMEPDGMGSSRKGRQRSMVWPGDGLVPDTAEPHVAPSPTLPSTEDVIRKTEQITKNIQELLRAAQENKHDSYIPCSERIHVAVTEMAALFPKKPKSDMVRTSLRLLTSSAYRLQSECKKTLPGDPGSPTDVQLVTQQVIQCAYDIAKAAKQLVTITTKENNN [GIT2]”, in the data set on HeLa Kyoto [1], the “solubility in G1/S (log2)” value was found to be 0.317. Moreover, the melting temperature in the data set with HeLa Kyoto [2] (cell cycle stage: G1/S) was found to be 48 °C; in the data set on HeLa Kyoto [2] (cell cycle stage: mitosis), 48.9 °C. For the same sequence, the “solubility change mitosis (log2)” value with HeLa Kyoto [3] was -0.13. Further, the thermal stability score was 1.06 in the data set on HeLa Kyoto [4] (setting [5]) and 2.68 with HeLa Kyoto [4] (cell cycle stage: mitosis).
Consider “MSKSESPKEPEQLRKLFIGGLSFETTDESLRSHFEQWGTLTDCVVMRDPNTKRSRGFGFVTYATVEEVDAAMNARPHKVDGRVVEPKRAVSREDSQRPGAHLTVKKIFVGGIKEDTEEHHLRDYFEQYGKIEVIEIMTDRGSGKKRGFAFVTFDDHDSVDKIVIQKYHTVNGHNCEVRKALSKQEMASASSSQRGRSGSGNFGGGRGGGFGGNDNFGRGGNFSGRGGFGGSRGGGGYGGSGDGYNGFGNDGGYGGGGPGYSGGSRGYGSGGQGYGNQGSGYGGSGSYDSYNNGGGGGFGGGSGSNFGGGGSYNDFGNYNNQSSNFGPMKGGNFGGRSSGPYGGGGQYFAKPRNQGGYGGSSSSSSYGSGRRF [HNRNPA1]”, for which the “solubility in G1/S (log2)” value in the data set on HeLa Kyoto [1] was -0.184. In addition, the melting temperature worked out at 49.4 °C with HeLa Kyoto [2] (cell cycle stage: G1/S) and 50.1 °C with HeLa Kyoto [2] (cell cycle stage: mitosis). Further, the “solubility change mitosis (log2)” value in the data set with HeLa Kyoto [3] is 0.275. For the same sequence, the figures for the thermal stability score in the data set on HeLa Kyoto [4] (setting [5]) and in the data set with HeLa Kyoto [4] (cell cycle stage: mitosis) were -0.92 and 1.18, respectively.
Turning to “MSKSKDDAPHELESQFILRLPPEYASTVRRAVQSGHVNLKDRLTIELHPDGRHGIVRVDRVPLASKLVDLPCVMESLKTIDKKTFYKTADICQMLVSTVDGDLYPPVEEPVASTDPKASKKKDKDKEKKFIWNHGITLPLKNVRKRRFRKTAKKKYIESPDVEKEVKRLLSTDAEAVSTRWEIIAEDETKEAENQGLDISSPGMSGHRQGHDSLEHDELREIFNDLSSSSEDEDETQHQDEEDINIIDTEEDLERQLQDKLNESDEQHQENEGTNQLVMGIQKQIDNMKGKLQETQDRAKRQEDLIMKVENLALKNRFQAVLDELKQKEDREKEQLSSLQEELESLLEK [TAF7]”, the “solubility in G1/S (log2)” value in the data set with HeLa Kyoto [1] was 0.55. Besides, the melting temperature in the data set with HeLa Kyoto [2] (cell cycle stage: G1/S) stood at 52 °C; in the data set on HeLa Kyoto [2] (cell cycle stage: mitosis), 51.6 °C. The “solubility change mitosis (log2)” value with HeLa Kyoto [3] worked out at 0.081. Besides, the thermal stability score turned out to be 1.09 in the data set on HeLa Kyoto [4] (setting [5]) and 3.64 in the data set with HeLa Kyoto [4] (cell cycle stage: mitosis).
On to “MSLADELLADLEEAAEEEEGGSYGEEEEEPAIEDVQEETQLDLSGDSVKTIAKLWDSKMFAEIMMKIEEYISKQAKASEVMGPVEAAPEYRVIVDANNLTVEIENELNIIHKFIRDKYSKRFPELESLVPNALDYIRTVKELGNSLDKCKNNENLQQILTNATIMVVSVTASTTQGQQLSEEELERLEEACDMALELNASKHRIYEYVESRMSFIAPNLSIIIGASTAAKIMGVAGGLTNLSKMPACNIMLLGAQRKTLSGFSSTSVLPHTGYIYHSDIVQSLPPDLRRKAARLVAAKCTLAARVDSFHESTEGKVGYELKDEIERKFDKWQEPPPVKQVKPLPAPLDGQRKKRGGRRYRKMKERLGLTEIRKQANRMSFGEIEEDAYQEDLGFSLGHLGKSGSGRVRQTQVNEATKARISKTLQRTLQKQSVVYGGKSTIRDRSSGTASSVAFTPLQGLEIVNPQAAEKKVAEANQKYFSSMAEFLKVKGEKSGLMST [PRPF31]”, for which the “solubility in G1/S (log2)” value in the data set with HeLa Kyoto [1] is -0.0726. For the same sequence, the melting temperature with HeLa Kyoto [2] (cell cycle stage: G1/S) came to 46.8 °C; in the data set on HeLa Kyoto [2] (cell cycle stage: mitosis) it was 48.3 °C. Also, the “solubility change mitosis (log2)” value in the data set on HeLa Kyoto [3] is 0.246. For the same sequence, the values for the thermal stability score in the data set on HeLa Kyoto [4] (setting [5]) and with HeLa Kyoto [4] (cell cycle stage: mitosis) were 2.25 and 7.81, respectively.
In the case of “MSLLLYYALPALGSYAMLSIFFLRRPHLLHTPRAPTFRIRLGAHRGGSGELLENTMEAMENSMAQRSDLLELDCQLTRDRVVVVSHDENLCRQSGLNRDVGSLDFEDLPLYKEKLEVYFSPGHFAHGSDRRMVRLEDLFQRFPRTPMSVEIKGKNEELIREIAGLVRRYDRNEITIWASEKSSVMKKCKAANPEMPLSFTISRGFWVLLSYYLGLLPFIPIPEKFFFCFLPNIINRTYFPFSCSCLNQLLAVVSKWLIMRKSLIRHLEERGVQVVFWCLNEESDFEAAFSVGATGVITDYPTALRHYLDNHGPAARTS [GDPD3]”, the “solubility in G1/S (log2)” value in the data set on HeLa Kyoto [1] is -0.262. Moreover, the melting temperature is 56.4 °C with HeLa Kyoto [2] (cell cycle stage: G1/S) and 55.1 °C in the data set with HeLa Kyoto [2] (cell cycle stage: mitosis). The “solubility change mitosis (log2)” value with HeLa Kyoto [3] is -0.0964. The results for the thermal stability score in the data set on HeLa Kyoto [4] (setting [5]) and in the data set on HeLa Kyoto [4] (cell cycle stage: mitosis) were -0.274 and 0.35, respectively.
